We go through 13 molecules from US20190144550A1 (Pfizer, published 2019).

Experiment [1] addresses T1, Monomeric 8-histidine tagged human EGFRvIII extracellular domain (human, UniProt P00533 298-645).
T1 construct: Analyte in all SPR assays; not shown: 8-histidine tag
Nature of the experiment: SPR, scFv-Fc captured by anti-human Fc, 37 C. Here is the method:
The scFv fragment was then fused to human IgG1 Fc moiety to facilitate recombinant expression and purification. Affinities of the scFv-Fc fusion proteins were measured at 37° C. on a surface plasmon resonance Biacore™ T200 biosensor equipped with an anti-human Fc coupled CM4 sensor chip (GE Healthcare Inc., Piscataway, N.J.) as described above. scFv-Fc proteins were captured by anti-human Fc. Monomeric 8-histidine tagged human EGFRvIII extracellular domain was then injected as the analyte at 10-fold dilution series starting at 1000 nM.
Background: Surface plasmon resonance follows binding to a sensor surface in real time, without labels.

The target of experiment [2] is T2, 8-histidine tagged recombinant wild-type protein EGFRwt (UniProt P00533 25-645, limits assumed).
T2 construct: not shown: 8-histidine tag
Nature of the experiment: SPR, captured by anti-human Fc, 25 C.

B1: 30D8.HL scFv-Fc protein (Fc fusion)
chain: EVQLVESGGGLVKPGGSLRLSCEASGFTFSDAWMSWVRQAPGKGLEWVGRIKSKTDGGTTDYVVPLNGRFIISRDDSRNTLYLQLNNLKTEDTAVYYCTTVPGSYGYWGQGTLVTVSSGGGGSGGGGSGGGGSGGGGSDIVMTQSPLSLPVTPGEPASISCRSSQSLLHNKRNNYLDWFLQKPGQSPQLLIYLASNRASGVPDRFSGGGSGTDFTLKISRVEAEDVGVYYCMQAQQTPITFGQGTRLEIK
notes: HL: heavy-chain variable domain at the N-terminus; not shown: human IgG1 Fc moiety
In experiment [1], B1 came in with a Kd of 225 nM, a koff of 0.053 s⁻¹ and a kon of 230000 M⁻¹ s⁻¹. In addition, the binding result in experiment [2] is reported as “no binding (tested: 1000 nM)”.

B2: 20E12.HL scFv-Fc protein (Fc fusion)
chain: EVNLVESGGGLVKPGGSLRLSCEASGFTFSYAWMSWVRQAPGKGLEWVGRIKSIADGGATDYAAPVRNRFTISRDDSRNTLYLEMHSLKTEDTAVYYCTTIPGNDAFDMWGQGTMVTVSSGGGGSGGGGSGGGGSGGGGSDIVLTQSPLSLSVTPGEPASISCRSSQSLLYSNGKNYLDWFLHKPGQSPQLLIYLGSNRASGVPDRFSGSGSGIDFILKISRVEAEDVGVYYCMQAQQTPITFGQGTRLEIK
notes: as for B1
In experiment [1], B2 displayed a Kd of 894 nM, a dissociation rate constant (koff) of 0.019 s⁻¹ and a kon of 21000 M⁻¹ s⁻¹. Also, the binding result in experiment [2] is “no binding (tested: 1000 nM)”.

B3: 32G8.HL scFv-Fc protein (Fc fusion)
chain: EVNLVESGGGLVKPGGSLRLSCEASGFTFSYAWMSWVRQAPGKGLEWVGRIKSITDGGVIDYAAPVRNRCTISRDDSRNTLYLEMHSLKTEDTAVYYCTTIPGNDDFDMWGQGRMVTVSSGGGGSGGGGSGGGGSGGGGSDIVLTQSPLSLSVTPGEPASISCRSSQSLLYSNGKNYLDWFLHKPGQSPQLLIYLGSNRASGVPDRFSGSGSGIDFILKISRVEAEDVGVYYCMQAQQTPITFGQGTRLEIK
notes: as for B1
In experiment [1], B3 yielded a Kd of 1490 nM, a koff of 0.013 s⁻¹ and a kon of 8700 M⁻¹ s⁻¹. The binding result in experiment [2] is given as “no binding (tested: 1000 nM)”.

B4: 20B9.LH scFv-Fc protein (Fc fusion)
chain: EIVMTQSPATLSVSPGERATLSCRVSQSIGANLAWYQQKFGQAPRLLIYGASTRATGIPVRFSGGGSGTEFTLTISSLQSEDFAIYSCQQYIYWPFTFGPGTTVDIKGGGGSGGGGSGGGGSGGGGSQVTLKESGPVLVKPTETLTLTCTVSGFSLSNARMGVSWIRQPPGKALEWLGHIFSTDEKSYSTSLRGRITISKDTSRGLVVLTLTNMDPVDTATYYCARDSSNYEGYFDFWGPGFLVTVSS
notes: LH: light-chain variable domain at the N-terminus; not shown: human IgG1 Fc moiety
In experiment [1], B4 showed a Kd of 82.7 nM, a dissociation rate constant (koff) of 0.0025 s⁻¹ and an association rate constant (kon) of 30000 M⁻¹ s⁻¹. The binding result in experiment [2] is “no binding (tested: 1000 nM)”.

B5: 32A10.LH scFv-Fc protein (Fc fusion)
chain: EVVMTQSPATLSVSPGERVTLSCRASQSVSSNFAWYQQRPGQAPRLLLYGATTRATGLPGRFSGSGSGTENILTISSLQSEDFAIYFCQQYKDWPFTFGPGSKVDIKGGGGSGGGGSGGGGSGGGGSQVTLKESGPVLVKPTETLTLTCTVSGFSLSNARMGVSWIRQPPGKALEWLAHIFSTDEKSIRRSLRSRLTLSKDTSKSQVVLTMTNMDPVDTATYFCARDSSNYEGYFDYWGQGTLVTVSS
notes: as for B4
In experiment [1], B5 returned a Kd of 29.8 nM, a koff of 0.0012 s⁻¹ and a kon of 41000 M⁻¹ s⁻¹. The binding result in experiment [2] is “no binding (tested: 1000 nM)”.

B6: 26B9.HL scFv-Fc protein (Fc fusion)
chain: EVQLVESWGVLVKPGGSLRLSCAASGFIFNNAWMSWVRQAPGKGLEWIGRIKSKSDGGTTDYAAPVKDRFTISRDDSKDTLYLQMNGLKTEDTAVYFCTTAPGGPFDYWGQGTLVTVSSGGGGSGGGGSGGGGSGGGGSDIVLTQSPLSLPVTPGEPASISCRSSQSLLHRDGFNYLDWFLQKPGQSPQLLIYLASSRASGVPDRFSGSDSGTDFTLKISRVEAEDVGVYYCMQALQTPITFGQGTRLEIK
notes: as for B1
With B6, in experiment [1], the equilibrium dissociation constant (Kd) is 705 nM, the koff was 0.04 s⁻¹ and the kon was determined as 57000 M⁻¹ s⁻¹. Moreover, in experiment [2], the binding result is “no binding (tested: 1000 nM)”.

B7: 42G9.LH scFv-Fc protein (Fc fusion)
chain: EVVLTQSPATLSVSPGERATLSCRASQSVRSNLAWYQQKSGQAPRLLIYGSTIRATGVPARFSGSGSGTEFTLTISSLQSEDFAVYYCQQYSDWPFTFGPGTKVDIKGGGGSGGGGSGGGGSGGGGSQVTLKESGPVLLKPTETLTLTCTVSGFSLSNPRMGVSWIRQPPGKALEWFAHIFSTDEKSLKLSLRSRLTLSKDTSKSQVVLTMTNMAPVDSATYYCARDSSNYEGYFDFWGQGTLVTVSS
notes: as for B4
As for B7, in experiment [1], binding was characterised by a dissociation constant (Kd) of 22.1 nM, the koff was found to be 0.00088 s⁻¹ and the on-rate (kon) turned out to be 40000 M⁻¹ s⁻¹. The binding result in experiment [2] was “no binding (tested: 1000 nM)”.

B8: 20B9.HL scFv-Fc protein (Fc fusion)
chain: QVTLKESGPVLVKPTETLTLTCTVSGFSLSNARMGVSWIRQPPGKALEWLGHIFSTDEKSYSTSLRGRITISKDTSRGLVVLTLTNMDPVDTATYYCARDSSNYEGYFDFWGPGFLVTVSSGGGGSGGGGSGGGGSGGGGSEIVMTQSPATLSVSPGERATLSCRVSQSIGANLAWYQQKFGQAPRLLIYGASTRATGIPVRFSGGGSGTEFTLTISSLQSEDFAIYSCQQYIYWPFTFGPGTTVDIK
notes: as for B1
In experiment [1], B8 yielded a Kd of 73.8 nM, a koff of 0.0018 s⁻¹ and an on-rate (kon) of 24000 M⁻¹ s⁻¹. For the same molecule, the binding result in experiment [2] is given as “no binding (tested: 1000 nM)”.

B9: 32A10.HL scFv-Fc protein (Fc fusion)
chain: QVTLKESGPVLVKPTETLTLTCTVSGFSLSNARMGVSWIRQPPGKALEWLAHIFSTDEKSIRRSLRSRLTLSKDTSKSQVVLTMTNMDPVDTATYFCARDSSNYEGYFDYWGQGTLVTVSSGGGGSGGGGSGGGGSGGGGSEVVMTQSPATLSVSPGERVTLSCRASQSVSSNFAWYQQRPGQAPRLLLYGATTRATGLPGRFSGSGSGTENILTISSLQSEDFAIYFCQQYKDWPFTFGPGSKVDIK
notes: as for B1
For the molecule B9, in experiment [1], the Kd amounted to 24.5 nM, the koff is 0.0012 s⁻¹ and the kon was determined as 47000 M⁻¹ s⁻¹. Further, the binding result in experiment [2] is recorded as “no binding (tested: 1000 nM)”.

B10: 20E12.LH scFv-Fc protein (Fc fusion)
chain: DIVLTQSPLSLSVTPGEPASISCRSSQSLLYSNGKNYLDWFLHKPGQSPQLLIYLGSNRASGVPDRFSGSGSGIDFILKISRVEAEDVGVYYCMQAQQTPITFGQGTRLEIKGGGGSGGGGSGGGGSGGGGSEVNLVESGGGLVKPGGSLRLSCEASGFTFSYAWMSWVRQAPGKGLEWVGRIKSIADGGATDYAAPVRNRFTISRDDSRNTLYLEMHSLKTEDTAVYYCTTIPGNDAFDMWGQGTMVTVSS
notes: as for B4
In experiment [1], B10 displayed a Kd of 932 nM, a koff of 0.015 s⁻¹ and an on-rate constant (kon) of 16000 M⁻¹ s⁻¹. Further, in experiment [2], the binding result was “no binding (tested: 1000 nM)”.

B11: 42G9.HL scFv-Fc protein (Fc fusion)
chain: QVTLKESGPVLLKPTETLTLTCTVSGFSLSNPRMGVSWIRQPPGKALEWFAHIFSTDEKSLKLSLRSRLTLSKDTSKSQVVLTMTNMAPVDSATYYCARDSSNYEGYFDFWGQGTLVTVSSGGGGSGGGGSGGGGSGGGGSEVVLTQSPATLSVSPGERATLSCRASQSVRSNLAWYQQKSGQAPRLLIYGSTIRATGVPARFSGSGSGTEFTLTISSLQSEDFAVYYCQQYSDWPFTFGPGTKVDIK
notes: as for B1
In experiment [1], B11 returned an equilibrium dissociation constant (Kd) of 18.8 nM, a koff of 0.0011 s⁻¹ and a kon of 56000 M⁻¹ s⁻¹. Also, the binding result in experiment [2] is reported as “no binding (tested: 1000 nM)”.

B12: 30D8.LH scFv-Fc protein (Fc fusion)
chain: DIVMTQSPLSLPVTPGEPASISCRSSQSLLHNKRNNYLDWFLQKPGQSPQLLIYLASNRASGVPDRFSGGGSGTDFTLKISRVEAEDVGVYYCMQAQQTPITFGQGTRLEIKGGGGSGGGGSGGGGSGGGGSEVQLVESGGGLVKPGGSLRLSCEASGFTFSDAWMSWVRQAPGKGLEWVGRIKSKTDGGTTDYVVPLNGRFIISRDDSRNTLYLQLNNLKTEDTAVYYCTTVPGSYGYWGQGTLVTVSS
notes: as for B4
In experiment [1], B12 showed a Kd of 349 nM, a koff of 0.038 s⁻¹ and a kon of 110000 M⁻¹ s⁻¹. In addition, in experiment [2], the binding result is recorded as “no binding (tested: 1000 nM)”.

B13: 26B9.LH scFv-Fc protein (Fc fusion)
chain: DIVLTQSPLSLPVTPGEPASISCRSSQSLLHRDGFNYLDWFLQKPGQSPQLLIYLASSRASGVPDRFSGSDSGTDFTLKISRVEAEDVGVYYCMQALQTPITFGQGTRLEIKGGGGSGGGGSGGGGSGGGGSEVQLVESWGVLVKPGGSLRLSCAASGFIFNNAWMSWVRQAPGKGLEWIGRIKSKSDGGTTDYAAPVKDRFTISRDDSKDTLYLQMNGLKTEDTAVYFCTTAPGGPFDYWGQGTLVTVSS
notes: as for B4
Consider B13, for which, in experiment [1], binding was characterised by a dissociation constant (Kd) of 494 nM, the koff was found to be 0.034 s⁻¹ and the kon was 69000 M⁻¹ s⁻¹. For the same molecule, in experiment [2], the binding result was “no binding (tested: 1000 nM)”.

Usually Kd stands for the free concentration of one partner at which half of the binding sites on the other are occupied at equilibrium, for simple one-to-one binding. The term koff denotes a measure of how fast the partners let go of each other. For orientation: kon means the rate constant with which the complex forms. The low end stands for slower complex formation, the high end for faster complex formation.
